Assay results published in publication PMC10628450.

What was measured:
[1] = biological target: Anti-NKp46_AB_F06 (human); experiment: BLI; antibodies loaded at 5 µg/ml on anti-human-Fc (AHC) or anti-human-CH1 (FAB2G) biosensors; antigen in solution (EGFR 3.125-200 nM; NKp46 and NKp30 1.6-100 nM) in kinetics buffer (PBS, 0.1% Tween-20, 1% BSA); 25°C; 1:1 binding model
[2] = biological target: Anti-NKp46_AB_H05 (human); experiment: as above
FcRn-His6 [3] = biological target: FcRn-His6 (UniProt P55899); experiment: BLI; pH 6; conditions: bispecific antibody
Sequence of FcRn-His6 (P55899 24-297, chain 1 of 2): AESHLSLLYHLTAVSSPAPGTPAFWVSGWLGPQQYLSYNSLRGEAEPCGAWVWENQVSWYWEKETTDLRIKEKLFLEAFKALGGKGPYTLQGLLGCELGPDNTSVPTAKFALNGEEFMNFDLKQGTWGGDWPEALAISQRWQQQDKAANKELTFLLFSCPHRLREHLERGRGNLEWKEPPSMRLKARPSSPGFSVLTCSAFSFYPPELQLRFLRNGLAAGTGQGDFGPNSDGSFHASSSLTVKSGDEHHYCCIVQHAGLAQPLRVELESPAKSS
Sequence of FcRn-His6 (partner, as listed by the source, chain 2 of 2): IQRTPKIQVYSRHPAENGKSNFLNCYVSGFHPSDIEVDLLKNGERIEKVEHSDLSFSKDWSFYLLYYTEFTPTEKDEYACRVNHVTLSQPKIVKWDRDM

FcRn-His6 [4] = biological target: FcRn-His6 (UniProt P55899); experiment: BLI; conditions: bispecific antibody

Sequence of Anti-NKp46_AB_H05 (human) (heavy, as listed by the source, chain 1 of 2): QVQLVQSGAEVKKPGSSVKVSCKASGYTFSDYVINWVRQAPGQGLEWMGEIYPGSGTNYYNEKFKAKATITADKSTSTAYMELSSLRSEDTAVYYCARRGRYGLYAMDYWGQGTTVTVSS
Sequence of Anti-NKp46_AB_H05 (human) (light, as listed by the source, chain 2 of 2): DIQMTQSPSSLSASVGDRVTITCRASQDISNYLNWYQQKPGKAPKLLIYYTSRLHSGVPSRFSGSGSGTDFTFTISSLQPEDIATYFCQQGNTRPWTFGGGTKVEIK
Sequence of Anti-NKp46_AB_F06 (human) (heavy, as listed by the source, chain 1 of 2): as the sequence (heavy, as listed by the source, chain 1 of 2) above
Sequence of Anti-NKp46_AB_F06 (human) (light, as listed by the source, chain 2 of 2): as the sequence (light, as listed by the source, chain 2 of 2) above

Substance | Kd [1] [nM] | Kd [2] [nM] | Kd (FcRn-His6 [3]) [nM] | koff (FcRn-His6 [3]) [s⁻¹] | Kd (FcRn-His6 [4]) [nM]
human EGFR ECD-His6 (from UniProt P00533 25-645) (receptor) | 29.4 | 37.7 | – | – | –
Anti-NKp46_EF_H05 (from UniProt P01857) | – | – | 392 | 0.0852 | –
Anti-NKp46_AB_H05 (from UniProt P01857) | – | – | 399 | 0.076 | –
Anti-NKp46_AB_F06 (from UniProt P01857) | – | – | 407 | 0.0576 | –
Anti-NKp46_EF_F06 (from UniProt P01857) | – | – | – | 0.0736 | 477
